Measured values reported in paper PMC3186216 (Biochemistry, 2010).

Target: T1, calnexin (dog (endogenous in MDCK), UniProt P24643 21-593)
T1 sequence (looked up): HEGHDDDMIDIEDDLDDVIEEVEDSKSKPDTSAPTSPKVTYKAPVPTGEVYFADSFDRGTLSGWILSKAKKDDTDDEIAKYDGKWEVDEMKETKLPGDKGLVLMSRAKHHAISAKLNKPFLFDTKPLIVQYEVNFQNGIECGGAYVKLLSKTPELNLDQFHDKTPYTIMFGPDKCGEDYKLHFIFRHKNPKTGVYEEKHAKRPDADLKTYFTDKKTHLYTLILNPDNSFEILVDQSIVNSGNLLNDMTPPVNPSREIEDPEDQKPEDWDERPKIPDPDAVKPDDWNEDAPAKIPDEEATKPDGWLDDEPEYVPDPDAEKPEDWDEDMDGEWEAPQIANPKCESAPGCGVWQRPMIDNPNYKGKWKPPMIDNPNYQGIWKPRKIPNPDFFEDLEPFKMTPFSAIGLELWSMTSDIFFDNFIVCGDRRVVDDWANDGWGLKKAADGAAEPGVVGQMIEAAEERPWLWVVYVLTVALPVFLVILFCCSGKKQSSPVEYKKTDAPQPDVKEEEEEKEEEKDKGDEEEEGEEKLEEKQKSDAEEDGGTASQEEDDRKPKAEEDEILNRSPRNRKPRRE
Test: co-IP

- normalised amount coprecipitated, fold of that of YFP-β1: ~7 fold
B1: YFP-linked Na,K-ATPase β2 subunit (human), wild type (natural protein, UniProt P14415 1-290, looked up)
chain: MVIQKEKKSCGQVVEEWKEFVWNPRTHQFMGRTGTSWAFILLFYLVFYGFLTAMFTLTMWVMLQTVSDHTPKYQDRLATPGLMIRPKTENLDVIVNVSDTESWDQHVQKLNKFLEPYNDSIQAQKNDVCRPGRYYEQPDNGVLNYPKRACQFNRTQLGNCSGIGDSTHYGYSTGQPCVFIKMNRVINFYAGANQSMNVTCAGKRDEDAENLGNFVMFPANGNIDLMYFPYYGKKFHVNYTQPLVAVKFLNVTPNVEVNVECRINAANIATDDERDKFAGRVAFKLRINKT
modifications: N-glycans at all eight N-glycosylation sites; only the high-mannose form coprecipitated with calnexin
